Where “and” joins values, the source holds several entries; their conditions need not be identical. Equal entries are not always repeated. Blank lines part the entries; values can stand above or below the binder they belong to.
Columns and labels:
[1] = biological target: T1, Aβ1-42 (UniProt P05067 672-713); test: Aβ 1-42 ELISA, peptide on plate; N-terminal VD
T1 construct: domain: Aβ1-42; Aβ 1-42 is a part of it; also called A beta
Procedure: (§1) ELISA assays were performed to screen for antibodies that bind a desired target antigen as follows. Maxisorb NUNC Immuno plates were coated with 100 μL/well of 1 μg/ml of Aβ1-42 diluted in coating buffer overnight at 6° C. Plates were washed three times with PBS containing 0.02% Tween 20. Blocking solution was prepared by dissolving the blocking reagent for ELISA (Roche) in 100 mL water and then diluted further 1:10 prior to use. Plates were blocked by the addition of 265 μL/well blocking solution for 2 hours at room temperature. Plates were washed three times after blocking with PBS containing 0.02% Tween 20.
(§2) Antibody or DVD-Igs were diluted to 100 ng/μL in PBST+0.5% BSA and serially diluted 1:3. One hundred microliters of antibody or DVD-Ig preparations was added to the plate and incubated for 2 hour at room temperature. Wells were washed three times with PBS containing 0.02% Tween 20.
(§3) One hundred microliters of TMB solution was added to each well and incubated for 10 minutes. TMB solution was prepared by mixing 20 mL 100 mM natrium-acetate pH4.9 with 200 μL TMB solution (Roche #92817060) and 29.5 μL 3% H₂O₂. The reaction was stopped by the addition of 50 μL 1N sulphuric acid. Plates were read spectrophotometrically at a wavelength of 450 nm.

[2] = biological target: T2, RAGE/FC Chimera (UniProt Q15109 23-342); test: direct bind ELISA, antigen on plate; C-terminal VD
T2 construct: extracellular domain; Bought reagent; not shown: Fc region of the bought chimera
Procedure: (§4) Enzyme Linked Immunosorbent Assays to screen for antibodies that bind a desired target antigen were performed as follows. High bind ELISA plates (Corning Costar #3369, Acton, Mass.) were coated with 100 μL/well of 10 μg/ml of desired target antigen (R&D Systems, Minneapolis, Minn.) or desired target antigen extra-cellular domain/FC fusion protein (R&D Systems, Minneapolis, Minn.) or monoclonal mouse anti-polyHistidine antibody (R&D Systems # MAB050, Minneapolis, Minn.) in phosphate buffered saline (10×PBS, Abbott Bioresearch Center, Media Prep# MPS-073, Worcester, Mass.) overnight at 4° C. Plates were washed four times with PBS containing 0.02% Tween 20. Plates were blocked by the addition of 300 μL/well blocking solution (non-fat dry milk powder, various retail suppliers, diluted to 2% in PBS) for 1/2 hour at room temperature. Plates were washed four times after blocking with PBS containing 0.02% Tween 20.
(§5) One hundred microliters of antibody or DVD-Ig preparations diluted in blocking solution as described above was added to the desired target antigen plate or desired target antigen/FC fusion plate or the anti-polyHistidine antibody/His tagged desired target antigen plate prepared as described above and incubated for 1 hour at room temperature. Wells were washed four times with PBS containing 0.02% Tween 20.
(§6) One hundred microliters of 10 ng/mL goat anti-human IgG-FC specific HRP conjugated antibody (Southern Biotech #2040-05, Birmingham, Ala.) was added to each well of the desired target antigen plate or anti-polyHistidine antibody/Histidine tagged desired target antigen plate. Alternatively, one hundred microliters of 10 ng/mL goat anti-human IgG-kappa light chain specific HRP conjugated antibody (Southern Biotech #2060-05 Birmingham, Ala.) was added to each well of the desired target antigen/FC fusion plate and incubated for 1 hour at room temperature. Plates were washed 4 times with PBS containing 0.02% Tween 20.

[3] = biological target: T2, RAGE/FC Chimera; test: direct bind ELISA, antigen on plate; parent antibody
Procedure: as §4, §5, §6

[4] = biological target: T3, Repulsive Guidence Molecule A (UniProt Q96B86 48-422, limits assumed); test: SPR (Biacore), antibody captured; parent antibody
T3 construct: Bought reagent for the ELISA; also called RGM-A; RGMa
T3 sequence (looked up): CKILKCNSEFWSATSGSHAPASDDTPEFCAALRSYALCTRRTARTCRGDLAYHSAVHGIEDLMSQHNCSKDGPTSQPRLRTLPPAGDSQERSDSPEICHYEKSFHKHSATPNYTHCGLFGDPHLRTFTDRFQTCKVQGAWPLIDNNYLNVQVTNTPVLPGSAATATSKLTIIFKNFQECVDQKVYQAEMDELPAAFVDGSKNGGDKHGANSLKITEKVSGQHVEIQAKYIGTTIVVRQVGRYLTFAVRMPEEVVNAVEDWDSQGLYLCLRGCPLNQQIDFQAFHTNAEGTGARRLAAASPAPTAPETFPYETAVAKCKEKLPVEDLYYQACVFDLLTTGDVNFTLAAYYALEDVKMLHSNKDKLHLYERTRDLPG
Procedure: The BIACORE assay (Biacore, Inc, Piscataway, N.J.) determines the affinity of antibodies or DVD-Ig with kinetic measurements of on-rate and off-rate constants. Binding of antibodies or DVD-Ig to a target antigen (for example, a purified recombinant target antigen) is determined by surface plasmon resonance-based measurements with a Biacore® 1000 or 3000 instrument (Biacore® AB, Uppsala, Sweden) using running HBS-EP (10 mM HEPES [pH 7.4], 150 mM NaCl, 3 mM EDTA, and 0.005% surfactant P20) at 25° C. All chemicals are obtained from Biacore® AB (Uppsala, Sweden) or otherwise from a different source as described in the text. For example, approximately 5000 RU of goat anti-mouse IgG, (Fcγ), fragment specific polyclonal antibody (Pierce Biotechnology Inc, Rockford, Ill.) diluted in 10 mM sodium acetate (pH 4.5) is directly immobilized across a CMS research grade biosensor chip using a standard amine coupling kit according to manufacturer's instructions and procedures at 25 μg/ml. Unreacted moieties on the biosensor surface are blocked with ethanolamine. Modified carboxymethyl dextran surface in flowcell 2 and 4 is used as a reaction surface. Unmodified carboxymethyl dextran without goat anti-mouse IgG in flow cell 1 and 3 is used as the reference surface. For kinetic analysis, rate equations derived from the 1:1 Langmuir binding model are fitted simultaneously to association and dissociation phases of all eight injections (using global fit analysis) with the use of Biaevaluation 4.0.1 software. Purified antibodies or DVD-Ig are diluted in HEPES-buffered saline for capture across goat anti-mouse IgG specific reaction surfaces. Antibodies or DVD-Ig to be captured as a ligand (25 μg/ml) are injected over reaction matrices at a flow rate of 5 μl/min. […] The equilibrium dissociation constant (M) of the reaction between antibodies or DVD-Igs and the target antigen is then calculated from the kinetic rate constants by the following formula: KD=koff/kₒₙ. Binding is recorded as a function of time and kinetic rate constants are calculated.

[5] = biological target: T3, Repulsive Guidence Molecule A; test: direct bind ELISA, antigen on plate; parent antibody
Procedure: as §4, §5, §6

[6] = biological target: T1, Aβ1-42; test: Aβ 1-42 ELISA, peptide on plate; C-terminal VD
Procedure: as §1, §2, §3

[7] = biological target: T2, RAGE/FC Chimera; test: direct bind ELISA, antigen on plate; N-terminal VD
Procedure: as §4, §5, §6

[8] = biological target: T4, Recombinant Human IL-1β (human, UniProt P01584 117-269); test: direct bind ELISA, antigen on plate; parent antibody
T4 construct: Bought reagent; also called IL-1B
Procedure: as §4, §5, §6

[9] = biological target: T5, IL-18 (UniProt Q14116 37-193, limits assumed); test: direct bind ELISA, antigen on plate; N-terminal VD
T5 construct: Bought reagent
Procedure: as §4, §5, §6

[10] = biological target: T6, IGF-I (UniProt P05019 49-118); test: direct bind ELISA, antigen on plate; N-terminal VD
T6 construct: Bought reagent; also called IGF1; IGF-1
Procedure: as §4, §5, §6

[11] = biological target: T7, IGF-II (UniProt P01344 25-91); test: direct bind ELISA, antigen on plate; N-terminal VD
T7 construct: Bought reagent; also called IGF2; IGF-2
Procedure: as §4, §5, §6

T2 sequence (Q15109 23-342, change not shown): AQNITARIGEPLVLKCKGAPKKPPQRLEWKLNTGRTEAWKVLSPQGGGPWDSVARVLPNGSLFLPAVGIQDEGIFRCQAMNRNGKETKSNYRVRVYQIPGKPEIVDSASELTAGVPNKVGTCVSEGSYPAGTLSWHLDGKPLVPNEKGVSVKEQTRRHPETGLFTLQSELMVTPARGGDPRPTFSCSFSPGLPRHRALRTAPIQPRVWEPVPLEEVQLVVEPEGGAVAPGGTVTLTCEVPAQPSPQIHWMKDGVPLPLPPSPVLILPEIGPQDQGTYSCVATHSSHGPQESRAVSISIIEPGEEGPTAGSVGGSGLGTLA

B2: AB060 (antibody, human IgG1, kappa, V domains shown)
VH: QIQLVQSGPELKKPGETVKISCKASGYTFTNFGMNWVKQAPGKGLKWMGYINTNTGESIYSEEFKGRFAFSLETSASTAYLQINNLKNEDTATYFCARSRMVTAYGMDYWGQGTSVTVSS
VL: DIVMTQSQKFMSTSVGDRVSITCKASQNVGTAVAWYQQRPGQSPKLLIFSASNRYTGVPDRFTGSGSGTDFTLTLSNMQPEDLADYFCQQYSSYPLTFGVGTKLELKR
- EC50 [3]: 1.69 nM and 0.64 nM

B4: AB059 (antibody, human IgG1, kappa, V domains shown)
VH: EVQLVESGGGLVQPGSSLKLSCVASGFTFSNYGMNWIRQAPKKGLEWIGMIYYDSSEKHYADSVKGRFTISRDNSKNTLYLEMNSLRSEDTAIYYCAKGTTPDYWGQGVMVTVSS
VL: DVVLTQTPVSLSVTLGDQASMSCRSSQSLEYSDGYTFLEWFLQKPGQSPQLLIYEVSNRFSGVPDRFIGSGSGTDFTLKISRVEPEDLGVYYCFQATHDPLTFGSGTKLEIKR
notes: also called RGMa parent antibody; RGMA parent antibody
- Kd [4]: 0.64 nM
- koff [4]: 0.000609 s⁻¹
- kon [4]: 952000 M⁻¹ s⁻¹
- EC50 [5]: 0.13 nM

B6: AB032 (antibody, human IgG1, kappa, V domains shown)
VH: QVQLVESGGGVVQPGRSLRLSCAASGFTFSVYGMNWVRQAPGKGLEWVAIIWYDGDNQYYADSVKGRFTISRDNSKNTLYLQMNGLRAEDTAVYYCARDLRTGPFDYWGQGTLVTVSS
VL: EIVLTQSPDFQSVTPKEKVTITCRASQSIGSSLHWYQQKPDQSPKLLIKYASQSFSGVPSRFSGSGSGTDFTLTINSLEAEDAAAYYCHQSSSLPFTFGPGTKVDIKR
notes: also called IL-1β parent antibody
- EC50 [8]: 5.27 nM

B7: DVD232 (bispecific antibody, human IgG1, kappa)
heavy: not shown
light: EIVMTQSPATLSVSPGERATLSCRASESISSNLAWYQQKPGQAPRLFIYTASTRATDIPARFSGSGSGTEFTLTISSLQSEDFAVYYCQQYNNWPSITFGQGTRLEIKRTVAAPDVVMTQSPLSLPVTPGEPASISCKSSQSLLDSDGKTYLNWLLQKPGQSPQRLIYLVSKLDSGVPDRFSGSGSGTDFTLKISRVEAEDVGVYYCWQGTHFPRTFGQGTKVEIKRTVAAPSVFIFPPSDEQLKSGTASVVCLLNNFYPREAKVQWKVDNALQSGNSQESVTEQDSKDSTYSLSSTLTLSKADYEKHKVYACEVTHQGLSSPVTKSFNRGEC
notes: DVD-Ig; also called VD232H/VD232L
- EC50 [6]: 0.048 nM
- EC50 [9]: 0.68 nM

B8: DVD230 (bispecific antibody, human IgG1, kappa)
heavy: not shown
light: QSVLTQPPSVSAAPGQKVTISCSGSSSNIENNHVSWYQQLPGTAPKLLIYDNNKRPSGIPDRFSGSKSGTSATLGITGLQTGDEADYYCETWDTSLSAGRVFGGGTKLTVLGQPKAAPDVVMTQSPLSLPVTPGEPASISCKSSQSLLDSDGKTYLNWLLQKPGQSPQRLIYLVSKLDSGVPDRFSGSGSGTDFTLKISRVEAEDVGVYYCWQGTHFPRTFGQGTKVEIKRTVAAPSVFIFPPSDEQLKSGTASVVCLLNNFYPREAKVQWKVDNALQSGNSQESVTEQDSKDSTYSLSSTLTLSKADYEKHKVYACEVTHQGLSSPVTKSFNRGEC
notes: DVD-Ig; also called VD230H/VD230L
- EC50 [6]: 0.039 nM
- EC50 [10]: 4.84 nM
- EC50 [11]: 2.44 nM

Second part, the binder after the results:

- EC50 [1]: 0.014 nM
- EC50 [2]: 1.53 nM
B1: DVD294 (bispecific antibody, human IgG1, kappa)
heavy: not shown
light: DVVMTQSPLSLPVTPGEPASISCKSSQSLLDSDGKTYLNWLLQKPGQSPQRLIYLVSKLDSGVPDRFSGSGSGTDFTLKISRVEAEDVGVYYCWQGTHFPRTFGQGTKVEIKRTVAAPDIVMTQSQKFMSTSVGDRVSITCKASQNVGTAVAWYQQRPGQSPKLLIFSASNRYTGVPDRFTGSGSGTDFTLTLSNMQPEDLADYFCQQYSSYPLTFGVGTKLELKRTVAAPSVFIFPPSDEQLKSGTASVVCLLNNFYPREAKVQWKVDNALQSGNSQESVTEQDSKDSTYSLSSTLTLSKADYEKHKVYACEVTHQGLSSPVTKSFNRGEC
notes: DVD-Ig; also called VD294H/VD294L

- EC50 [1]: 0.013 nM
B3: DVD233 (bispecific antibody, human IgG1, kappa)
heavy: not shown
light: DVVMTQSPLSLPVTPGEPASISCKSSQSLLDSDGKTYLNWLLQKPGQSPQRLIYLVSKLDSGVPDRFSGSGSGTDFTLKISRVEAEDVGVYYCWQGTHFPRTFGQGTKVEIKRTVAAPQIVLIQSPAIMSASPGEKVTMTCSASSSVSYMYWYQQKPGSSPRLLIYDTSNLASGVPVRFSGSGSGTSYSLTISRMEAEDAATYYCQQWSGYPYTFGGGTKLEIKRTVAAPSVFIFPPSDEQLKSGTASVVCLLNNFYPREAKVQWKVDNALQSGNSQESVTEQDSKDSTYSLSSTLTLSKADYEKHKVYACEVTHQGLSSPVTKSFNRGEC
notes: DVD-Ig; also called VD233H/VD233L

- EC50 [6]: 0.048 nM
- EC50 [7]: 7.32 nM
B5: DVD293 (bispecific antibody, human IgG1, kappa)
heavy: not shown
light: DIVMTQSQKFMSTSVGDRVSITCKASQNVGTAVAWYQQRPGQSPKLLIFSASNRYTGVPDRFTGSGSGTDFTLTLSNMQPEDLADYFCQQYSSYPLTFGVGTKLELKRTVAAPDVVMTQSPLSLPVTPGEPASISCKSSQSLLDSDGKTYLNWLLQKPGQSPQRLIYLVSKLDSGVPDRFSGSGSGTDFTLKISRVEAEDVGVYYCWQGTHFPRTFGQGTKVEIKRTVAAPSVFIFPPSDEQLKSGTASVVCLLNNFYPREAKVQWKVDNALQSGNSQESVTEQDSKDSTYSLSSTLTLSKADYEKHKVYACEVTHQGLSSPVTKSFNRGEC
notes: DVD-Ig; also called VD293H/VD293L

Source: patent US20150183867A1 (AbbVie / Abbott, published 2015)
